Measured values published in patent US20200055941A1 (MILTENYI BIOTEC, published 2020).

What was measured:
[1] = target: T1, Recombinant Human Fc gamma RIIb/CD32b (human, UniProt P31994 46-217); assay: ELISA, plates coated with recombinant CD32b/c, anti-human kappa-HRP
T1 construct: also called FcγRIIb; CD32b/c
T1 sequence (looked up): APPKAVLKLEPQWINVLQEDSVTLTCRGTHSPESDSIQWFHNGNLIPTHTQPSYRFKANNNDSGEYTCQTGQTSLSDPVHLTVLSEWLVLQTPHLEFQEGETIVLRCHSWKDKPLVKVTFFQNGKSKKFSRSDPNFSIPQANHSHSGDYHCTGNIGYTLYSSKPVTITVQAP
Protocol: To examine more precisely the CD32b/c binding of MB101, the wt IgG₄ and the two single mutation variants, linear dilutions of the mAbs were incubated with ELISA plates previously coated with recombinant CD32b/c. FcR-bound anti-BDCA2 Ab were probed with anti-human kappa-HRP and TMB-substrate.
(§1) ELISA plates were coated with Fc gamma receptors I, IIa, IIb, IIIa and IIIb with 5 μg/mL each in coating buffer overnight at 4° C. Coated plates were washed 3-fold with 1×PBS 0.05% Tween 20 and blocked with 5% BSA in 1×PBS. Antibodies were applied to ELISA plates with 50 μL/well at serial 2-fold dilution of antibody solution and incubated at room temperature for 1 h. As blank controls, respective antibody concentrations were also applied to wells lacking coated Fc gamma receptors, in order to subtract unspecific binding from resulting signals. After washing (see above), the detection antibody anti-human kappa-HRP (FE 110316.07) 1:4000 in 1×PBS was applied with 50 μL/well and incubated again at RT for 1 h. After additional washing (see above), for assay development 50 μL/well TMB (CH111027.37) were applied and stopped after approx. 5 minutes with 50 μL/well 10% H₂SO₄. The developed plate was then analyzed via ELISA reader at 450 nm wavelength.

[2] = target: T1, Recombinant Human Fc gamma RIIb/CD32b; assay: ELISA, plate-bound recombinant receptor, anti-human kappa-HRP
Protocol: as §1

[3] = target: T2, Recombinant Human Fc gamma RIIIb/CD16b (human, UniProt O75015 17-200); assay: as above
T2 construct: also called Fcγ RIIIb/c; CD16b/c
Protocol: as §1

T2 sequence (O75015 17-200 limits assumed): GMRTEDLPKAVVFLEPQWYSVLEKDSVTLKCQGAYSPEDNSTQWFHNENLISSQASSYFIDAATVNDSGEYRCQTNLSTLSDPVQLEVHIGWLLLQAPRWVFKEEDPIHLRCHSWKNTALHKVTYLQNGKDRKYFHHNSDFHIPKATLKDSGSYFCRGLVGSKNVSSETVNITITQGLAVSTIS

| Binder | binding result [1] | binding result [2] | binding result [3] |
| --- | --- | --- | --- |
| aCD303-hIgG4-WT (antibody, MB101 (anti-CD303) expressed as a wild type IgG4; also called wt IgG4; wild type IgG4 antibody (aCD303-hIgG4)) heavy: not shown light: DIQMTQSPSSVSASVGDRVTITCRASQEISGYLSWYQQKPGKAIKRLIYAASTLDSGVPSRFSGSRSGTDFTLTISSLQSEDFATYYCLQYASYPPTFGGGTKLEIKGTVAAPSVFIFPPSDEQLKSGTASVVCLLNNFYPREAKVQWKVDNALQSGNSQESVTEQDSKDSTYSLSSTLTLSKADYEKHKVYACEVTHQGLSSPVTKSFNRGEC | binds |  |  |
| MB101 (aCD303-hIgG4-S241P/R409K) (antibody, Humanized IgG4 against BDCA-2 (CD303), made in CHO DG44 cells; also called MB101.10; anti-CD303 IgG4 S241P/R409K) heavy: not shown light: DIQMTQSPSSVSASVGDRVTITCRASQEISGYLSWYQQKPGKAIKRLIYAASTLDSGVPSRFSGSRSGTDFTLTISSLQSEDFATYYCLQYASYPPTFGGGTKLEIKGTVAAPSVFIFPPSDEQLKSGTASVVCLLNNFYPREAKVQWKVDNALQSGNSQESVTEQDSKDSTYSLSSTLTLSKADYEKHKVYACEVTHQGLSSPVTKSFNRGEC |  | binds | no binding |
| Pool 6 (aCD303-hIgG4-R409K) (antibody, Single mutation variant of MB101; also called anti-CD303 IgG4 R409K; IgG4 variant R409K) heavy: QVTLKESGPTLVKPTQTLTLTCTFSGFSLSTSGMGVGWIRQPPGKALEWLAHIWWEDDKYYNPSLKSRLTITKDTSKNQVVLTMTNMDPVDTATYYCTRNWDYYTMDYWGQGTTVTVSSASTKGPSVFPLAPCSRSTSESTAALGCLVKDYFPEPVTVSWNSGALTSGVHTFPAVLQSSGLYSLSSVVTVPSSSLGTKTYTCNVDHKPSNTKVDKRVESKYGPPCPSCPAPEFLGGPSVFLFPPKPKDTLMISRTPEVTCVVVDVSQEDPEVQFNWYVDGVEVHNAKTKPREEQFNSTYRVVSVLTVLHQDWLNGKEYKCKVSNKGLPSSIEKTISKAKGQPREPQVYTLPPSQEEMTKNQVSLTCLVKGFYPSDIAVEWESNGQPENNYKTTPPVLDSDGSFFLYSKLTVDKSRWQEGNVFSCSVMHEALHNHYTQKSLSLSLGK light: DIQMTQSPSSVSASVGDRVTITCRASQEISGYLSWYQQKPGKAIKRLIYAASTLDSGVPSRFSGSRSGTDFTLTISSLQSEDFATYYCLQYASYPPTFGGGTKLEIKGTVAAPSVFIFPPSDEQLKSGTASVVCLLNNFYPREAKVQWKVDNALQSGNSQESVTEQDSKDSTYSLSSTLTLSKADYEKHKVYACEVTHQGLSSPVTKSFNRGEC | binds |  |  |
